Assay results published in paper PMC10248529.

How the values were obtained:
[1] = target: HAx3-tagged Cho1 (phosphatidylserine synthase from Candida albicans) (Candida albicans); test: native gel or EMSA; BN-PAGE and anti-HA Western blot of SMA2000-solubilised membrane fractions (SMALPs), 1-4% SMA2000, 30 or 60 min, 37 °C
[2] = target: HAx3-tagged Cho1 (phosphatidylserine synthase from Candida albicans) (Candida albicans); test: native gel or EMSA; BN-PAGE and anti-HA Western blot of Cho1-HAx3 pulled down with anti-HA beads and eluted harshly: 50 mM NaOH + 0.05% digitonin, then 1 M Tris pH 8.5

## HAx3-tagged Cho1 (phosphatidylserine synthase from Candida albicans) (from UniProt A0A1D8PF32 1-273) (enzyme)
[1]
  stoichiometry N: 2
[2]
  stoichiometry N: 2
